Results from patent publication US20150086555A1.

Experiments:
Settings in all cases: remark: other sources report otherwise
[1] = target: recombinant soluble homotrimeric HA of A/Netherlands/219/03 (H7N7) (Influenza A virus A/Netherlands/219/03(H7N7)); experiment: HA microarray, BCC supernatant
[2] = target: T1, recombinant soluble homotrimeric HA of A/chicken/Vietnam/NCVD-016/08 (H5N1) (Influenza A virus A/chicken/Vietnam/NCVD-016/2008(H5N1)); experiment: HA microarray, BCC supernatant
[3] = target: recombinant soluble homotrimeric HA of A/northern shoveler/California/HKWF115/07 (H6) (Influenza A virus A/northern shoveler/California/HKWF115/2007(H6N1)); experiment: HA microarray, BCC supernatant
[4] = target: T2, recombinant soluble homotrimeric HA of A/Wisconsin/67/05 (H3N2) (Influenza A virus A/Wisconsin/67/2005(H3N2)); experiment: HA microarray, BCC supernatant
[5] = target: T3, recombinant soluble homotrimeric HA of A/Japan/305/57 (H2N2) (Influenza A virus A/Japan/305/1957(H2N2)); experiment: HA microarray, BCC supernatant
[6] = target: recombinant soluble homotrimeric HA of A/Solomon Islands/3/06 (H1N1) (Influenza A virus A/Solomon Islands/3/2006(H1N1)); experiment: HA microarray, BCC supernatant
[7] = target: recombinant soluble homotrimeric HA of A/California/4/09 (H1N1) (Influenza A virus A/California/04/2009(H1N1)); experiment: HA microarray, BCC supernatant
[8] = target: recombinant soluble homotrimeric HA, A/swine/Ontario/01911-2/99 H4N6 (Influenza A virus A/Swine/Ontario/01911-2/99 (H4N6)); experiment: microarray, transfection SN IgG, trimeric HA
[9] = target: recombinant soluble homotrimeric HA, A/Wisconsin/67/05 H3N2 (Influenza A virus A/Wisconsin/67/2005(H3N2)); experiment: microarray, transfection SN IgG, trimeric HA
[10] = target: recombinant soluble homotrimeric HA, A/Netherlands/219/03 H7N7 (Influenza A virus A/Netherlands/219/03(H7N7)); experiment: microarray, transfection SN IgG, trimeric HA
[11] = target: recombinant soluble homotrimeric HA, A/Egypt/3300-NAMRU3/08 H5N1 (Influenza A virus A/Egypt/3300-NAMRU3/2008(H5N1)); experiment: microarray, transfection SN IgG, trimeric HA
[12] = target: recombinant soluble homotrimeric HA, A/duck/Yangzhou/02/05 H8N4 (Influenza A virus A/duck/Yangzhou/02/2005(H8N4)); experiment: microarray, transfection SN IgG, trimeric HA
[13] = target: recombinant soluble homotrimeric HA, A/Solomon Islands/3/06 H1N1 (Influenza A virus A/Solomon Islands/3/2006(H1N1)); experiment: microarray, transfection SN IgG, trimeric HA
[14] = target: recombinant soluble homotrimeric HA, A/chicken/Vietnam/NCVD-016/08 H5N1 (Influenza A virus A/chicken/Vietnam/NCVD-016/2008(H5N1)); experiment: microarray, transfection SN IgG, trimeric HA
[15] = target: recombinant soluble homotrimeric HA, A/California/4/09 H1N1 (Influenza A virus A/California/04/2009(H1N1)); experiment: microarray, transfection SN IgG, trimeric HA
[16] = target: recombinant soluble homotrimeric HA, A/Japan/305/57 H2N2 (Influenza A virus A/Japan/305/1957(H2N2)); experiment: microarray, transfection SN IgG, trimeric HA
[17] = target: recombinant soluble homotrimeric HA, A/South Carolina/1/18 H1N1 (Influenza A virus A/South Carolina/1/18 (H1N1)); experiment: microarray, transfection SN IgG, trimeric HA
[18] = target: recombinant soluble homotrimeric HA, A/northern shoveler/California/HKWF115/07 H6N4 (Influenza A virus A/northern shoveler/California/HKWF115/2007(H6N1)); experiment: microarray, transfection SN IgG, trimeric HA
[19] = target: recombinant homotrimeric HA A/South Carolina/1/18 H1N1 (Influenza A virus A/South Carolina/1/18 (H1N1)); experiment: protein microarray, purified IgG, trimeric HA
[20] = target: recombinant homotrimeric HA A/chicken/Vietnam/NCVD-016/08 H5N1 (Influenza A virus A/chicken/Vietnam/NCVD-016/2008(H5N1)); experiment: protein microarray, purified IgG, trimeric HA
[21] = target: recombinant homotrimeric HA A/Japan/305/57 H2N2 (Influenza A virus A/Japan/305/1957(H2N2)); experiment: protein microarray, purified IgG, trimeric HA
[22] = target: recombinant homotrimeric HA A/Egypt/3300-NAMRU3/08 H5N1 (Influenza A virus A/Egypt/3300-NAMRU3/2008(H5N1)); experiment: protein microarray, purified IgG, trimeric HA
[23] = target: recombinant homotrimeric HA A/Wisconsin/67/05 H3N2 (Influenza A virus A/Wisconsin/67/2005(H3N2)); experiment: protein microarray, purified IgG, trimeric HA
[24] = target: recombinant homotrimeric HA A/northern shoveler/California/HKWF115/07 H6N4 (Influenza A virus A/northern shoveler/California/HKWF115/2007(H6N1)); experiment: protein microarray, purified IgG, trimeric HA
[25] = target: recombinant homotrimeric HA A/Netherlands/219/03 H7N7 (Influenza A virus A/Netherlands/219/03(H7N7)); experiment: protein microarray, purified IgG, trimeric HA
[26] = target: recombinant homotrimeric HA A/Hong Kong/1073/99 H9N2 (Influenza A virus A/Hong Kong/1073/99 (H9N2)); experiment: protein microarray, purified IgG, trimeric HA
[27] = target: recombinant homotrimeric HA A/duck/Yangzhou/02/05 H8N4 (Influenza A virus A/duck/Yangzhou/02/2005(H8N4)); experiment: protein microarray, purified IgG, trimeric HA
[28] = target: recombinant homotrimeric HA A/California/4/09 H1N1 (Influenza A virus A/California/04/2009(H1N1)); experiment: protein microarray, purified IgG, trimeric HA
[29] = target: T4, recombinant soluble homotrimeric HA of A/Vietnam/1203/04 (H5N1) (Influenza A virus A/VietNam/1203/2004(H5N1)); experiment: HA microarray, BCC supernatant
[30] = target: recombinant homotrimeric HA A/Indonesia/5/05 H5N1 (Influenza A virus A/Indonesia/5/2005(H5N1)); experiment: protein microarray, purified IgG, trimeric HA
[31] = target: recombinant homotrimeric HA A/Hong Kong/2108/03 H9N2 (Influenza A virus A/HK/2108/2003(H9N2)); experiment: protein microarray, purified IgG, trimeric HA
[32] = target: recombinant soluble homotrimeric HA of A/duck/Yangzhou/02/05 (H8N4) (Influenza A virus A/duck/Yangzhou/02/2005(H8N4)); experiment: trimeric HA microarray, transfection supernatant set 5
[33] = target: T1, recombinant soluble homotrimeric HA of …; experiment: as above
[34] = target: T2, recombinant soluble homotrimeric HA of …; experiment: as above
[35] = target: recombinant soluble homotrimeric HA of A/swine/Ontario/01911-2/99 (H4N6) (Influenza A virus A/Swine/Ontario/01911-2/99 (H4N6)); experiment: as above
[36] = target: T3, recombinant soluble homotrimeric HA of …; experiment: as above
[37] = target: T4, recombinant soluble homotrimeric HA of …; experiment: as above
[38] = target: recombinant soluble homotrimeric HA of A/South Carolina/1/18 (H1N1) (Influenza A virus A/South Carolina/1/18 (H1N1)); experiment: as above

B1: TCN-549 (5092_P04) (antibody, V domains shown)
VH: QVQLVQSGAEVKKPGASVKVSCKASGYTFTGYYMHWVRQAPGQGLEWMGWINPNSGDTNYAQKFQGRVTMTRDTSITTAYMELSSLRSDDTAVYYCARDSPYSSSWSFFDYWGQGPLVTVSS
VL: not shown
Q: How did the Trimeric HA Binding: RLU [1] turn out when B1 was run?
A: 1130 RLU

Q: What about the Trimeric HA Binding: RLU [2] of the same binder?
A: 498 RLU

Q: What about the Trimeric HA Binding: RLU [3] of the same binder?
A: 1100 RLU

Q: And the Trimeric HA Binding: RLU [4]?
A: 30900 RLU

Q: And the Trimeric HA Binding: RLU [5]?
A: 387 RLU

Q: And the Trimeric HA Binding: RLU [6]?
A: 284 RLU

Q: What about the Trimeric HA Binding: RLU [7] of the same binder?
A: 338 RLU

Q: And the Trimeric HA Binding: RLU [8]?
A: 1880 RLU

Q: What about the Trimeric HA Binding: RLU [9] of the same binder?
A: 51600 RLU

Q: And the Trimeric HA Binding: RLU [10]?
A: 8480 RLU

Q: And the Trimeric HA Binding: RLU [11]?
A: 18600 RLU

Q: What about the Trimeric HA Binding: RLU [12] of the same binder?
A: 9450 RLU

Q: What about the Trimeric HA Binding: RLU [13] of the same binder?
A: 640 RLU

Q: What about the Trimeric HA Binding: RLU [14] of the same binder?
A: 1600 RLU

Q: And the Trimeric HA Binding: RLU [15]?
A: 622 RLU

Q: What about the Trimeric HA Binding: RLU [16] of the same binder?
A: 1080 RLU

Q: What about the Trimeric HA Binding: RLU [17] of the same binder?
A: 2340 RLU

Q: What about the Trimeric HA Binding: RLU [18] of the same binder?
A: 996 RLU

Q: What about the Trimeric HA Binding: RLU [19] of the same binder?
A: 72 RLU

Q: And the Trimeric HA Binding: RLU [20]?
A: 177 RLU

Q: And the Trimeric HA Binding: RLU [21]?
A: 413 RLU

Q: What about the Trimeric HA Binding: RLU [22] of the same binder?
A: 6920 RLU

Q: What about the Trimeric HA Binding: RLU [23] of the same binder?
A: 27200 RLU

Q: And the Trimeric HA Binding: RLU [24]?
A: 112 RLU

Q: What about the Trimeric HA Binding: RLU [25] of the same binder?
A: 193 RLU

Q: What about the Trimeric HA Binding: RLU [26] of the same binder?
A: 450 RLU

Q: What about the Trimeric HA Binding: RLU [27] of the same binder?
A: 166 RLU

Q: And the Trimeric HA Binding: RLU [28]?
A: 196 RLU

B2: TCN-545 (5082_I15) (antibody, V domains shown)
VH: QVQLQQWGAGLLKPSETLSLSCAVFGGSFSDYYWTWIRQPPGKGLEWIGEIKHSGRTNYNPSLESRVTISVDTSKNQFSLKLSSVTAADTAIYYCARGTDPDTEGYCRSGSCSAFDFWGQGTLVTVSS
VL: EIVLTQSPGTLSLSPGERATLSCRASHFVNYRSLAWYQQTPGQVPRLLIYGASTRATGIPDRFSGSGSGTDFTLTISRLEPEDFAVYFCQQYGGSPRYTFGQGTRLEIK
Q: With B2 as the binder, how does the Trimeric HA Binding: RLU [1] read?
A: 1180 RLU

Q: What about the Trimeric HA Binding: RLU [2] of the same binder?
A: 392 RLU

Q: And the Trimeric HA Binding: RLU [4]?
A: 575 RLU

Q: What about the Trimeric HA Binding: RLU [5] of the same binder?
A: 157 RLU

Q: And the Trimeric HA Binding: RLU [29]?
A: 235 RLU

Q: What about the Trimeric HA Binding: RLU [30] of the same binder?
A: 193 RLU

Q: What about the Trimeric HA Binding: RLU [19] of the same binder?
A: 289 RLU

Q: What about the Trimeric HA Binding: RLU [20] of the same binder?
A: 679 RLU

Q: And the Trimeric HA Binding: RLU [21]?
A: 1400 RLU

Q: And the Trimeric HA Binding: RLU [22]?
A: 1410 RLU

Q: What about the Trimeric HA Binding: RLU [23] of the same binder?
A: 23700 RLU

Q: And the Trimeric HA Binding: RLU [31]?
A: 262 RLU

Q: What about the Trimeric HA Binding: RLU [25] of the same binder?
A: 1490 RLU

Q: And the Trimeric HA Binding: RLU [27]?
A: 396 RLU

Q: What about the Trimeric HA Binding: RLU [28] of the same binder?
A: 672 RLU

Q: What about the Trimeric HA Binding: RLU [32] of the same binder?
A: 13200 RLU

Q: What about the Trimeric HA Binding: RLU [33] of the same binder?
A: 3230 RLU

Q: And the Trimeric HA Binding: RLU [34]?
A: 32000 RLU

Q: What about the Trimeric HA Binding: RLU [35] of the same binder?
A: 2940 RLU

Q: And the Trimeric HA Binding: RLU [36]?
A: 1360 RLU

Q: What about the Trimeric HA Binding: RLU [37] of the same binder?
A: 42900 RLU

Q: And the Trimeric HA Binding: RLU [38]?
A: 900 RLU
